B1: CagL^ΔRGD motif variant, recombinant (natural protein)
chain: EDITSGLKQLDSTYQETNQQVLKNLDEIFSTTSPSANNEMGEEDALNIKKAAIALLALLKANFEANELFFISEDVIFKTYMSSPELLLTYMKINPLDQNTAEQQCGISDKVLVLYCEGKLKIEQEKQNIRERLETSLKAYQSNIGGTASLITASQTLVESLKNKNFIKGIRKLMLAHNKVFLNYLEELDALERSLEQSKRQYLQERQSSKIIVK
B2: CagL^ΔRGDΔTASLI double motif deletion, recombinant (natural protein)
chain: EDITSGLKQLDSTYQETNQQVLKNLDEIFSTTSPSANNEMGEEDALNIKKAAIALLALLKANFEANELFFISEDVIFKTYMSSPELLLTYMKINPLDQNTAEQQCGISDKVLVLYCEGKLKIEQEKQNIRERLETSLKAYQSNIGGTASQTLVESLKNKNFIKGIRKLMLAHNKVFLNYLEELDALERSLEQSKRQYLQERQSSKIIVK

Experiments:
Assay in all cases: ELISA; ELISA-like multiwell assay: wells coated overnight with 100 ng/well recombinant human integrin heterodimer in 100 mM sodium carbonate pH 9.5; blocked with FCS-containing or FCS-free blocker; purified CagL (2.5, 5, 10, 20 ng/well; 10 ng for the comparison of mutants) incubated 3 h, washed; bound CagL detected with anti-CagL antiserum AK271; values relative to wild type CagL set to 100% after background subtraction
[1] = target: recombinant human integrin αvβ6 (human) (UniProt P06756)
recombinant human integrin αvβ6 (human), sequence (P06756 31-1048, chain 1 of 2): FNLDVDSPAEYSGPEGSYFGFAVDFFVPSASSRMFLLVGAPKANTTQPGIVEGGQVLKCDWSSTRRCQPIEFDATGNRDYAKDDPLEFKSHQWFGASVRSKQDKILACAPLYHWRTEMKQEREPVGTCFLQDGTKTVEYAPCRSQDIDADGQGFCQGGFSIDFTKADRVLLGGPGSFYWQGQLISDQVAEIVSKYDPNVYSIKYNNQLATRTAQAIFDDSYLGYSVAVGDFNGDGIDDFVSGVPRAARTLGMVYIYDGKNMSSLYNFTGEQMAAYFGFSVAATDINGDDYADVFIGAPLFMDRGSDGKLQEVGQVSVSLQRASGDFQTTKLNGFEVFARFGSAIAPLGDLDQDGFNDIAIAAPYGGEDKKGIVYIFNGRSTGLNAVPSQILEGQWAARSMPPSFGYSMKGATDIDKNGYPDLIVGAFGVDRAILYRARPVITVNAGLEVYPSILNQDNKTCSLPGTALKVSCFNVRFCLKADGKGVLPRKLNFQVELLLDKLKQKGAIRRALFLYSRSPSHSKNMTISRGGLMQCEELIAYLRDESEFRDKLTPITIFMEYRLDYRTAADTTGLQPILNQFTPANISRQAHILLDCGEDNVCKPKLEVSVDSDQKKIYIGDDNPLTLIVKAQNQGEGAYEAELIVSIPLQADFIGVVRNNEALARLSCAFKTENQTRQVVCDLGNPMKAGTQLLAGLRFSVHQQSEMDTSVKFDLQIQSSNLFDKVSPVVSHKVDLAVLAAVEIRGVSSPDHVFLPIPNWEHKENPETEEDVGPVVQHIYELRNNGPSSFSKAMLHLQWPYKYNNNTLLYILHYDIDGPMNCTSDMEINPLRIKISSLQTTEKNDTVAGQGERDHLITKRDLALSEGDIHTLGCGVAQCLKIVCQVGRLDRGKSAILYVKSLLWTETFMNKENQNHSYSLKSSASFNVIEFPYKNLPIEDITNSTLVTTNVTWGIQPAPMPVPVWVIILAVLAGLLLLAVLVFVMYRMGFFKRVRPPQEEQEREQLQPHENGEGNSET
recombinant human integrin αvβ6 (human), sequence (P18564 22-709, chain 2 of 2, further chain): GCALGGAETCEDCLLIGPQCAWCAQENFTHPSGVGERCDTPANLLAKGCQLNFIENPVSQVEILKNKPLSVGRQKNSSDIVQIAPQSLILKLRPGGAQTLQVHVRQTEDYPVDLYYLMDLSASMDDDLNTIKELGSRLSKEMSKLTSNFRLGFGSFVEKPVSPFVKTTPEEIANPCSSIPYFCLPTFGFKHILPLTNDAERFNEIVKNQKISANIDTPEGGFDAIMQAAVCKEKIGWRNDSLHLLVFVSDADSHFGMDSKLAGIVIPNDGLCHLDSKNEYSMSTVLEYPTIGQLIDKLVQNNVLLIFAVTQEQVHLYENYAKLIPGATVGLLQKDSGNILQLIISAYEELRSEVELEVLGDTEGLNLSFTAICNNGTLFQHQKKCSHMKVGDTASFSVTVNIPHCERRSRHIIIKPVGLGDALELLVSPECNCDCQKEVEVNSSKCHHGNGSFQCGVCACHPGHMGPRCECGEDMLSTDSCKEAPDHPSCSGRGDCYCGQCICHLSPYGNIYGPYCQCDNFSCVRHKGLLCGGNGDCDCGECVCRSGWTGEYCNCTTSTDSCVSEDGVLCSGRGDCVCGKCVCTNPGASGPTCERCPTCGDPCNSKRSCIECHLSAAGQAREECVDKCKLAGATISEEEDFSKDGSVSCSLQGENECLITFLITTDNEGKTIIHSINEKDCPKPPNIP

[2] = target: recombinant human integrin αvβ5 (human) (UniProt P06756)
recombinant human integrin αvβ5 (human), sequence (P06756 31-1048, chain 1 of 2): as the sequence (P06756 31-1048, chain 1 of 2) above
recombinant human integrin αvβ5 (human), sequence (P18084 24-719, chain 2 of 2, further chain): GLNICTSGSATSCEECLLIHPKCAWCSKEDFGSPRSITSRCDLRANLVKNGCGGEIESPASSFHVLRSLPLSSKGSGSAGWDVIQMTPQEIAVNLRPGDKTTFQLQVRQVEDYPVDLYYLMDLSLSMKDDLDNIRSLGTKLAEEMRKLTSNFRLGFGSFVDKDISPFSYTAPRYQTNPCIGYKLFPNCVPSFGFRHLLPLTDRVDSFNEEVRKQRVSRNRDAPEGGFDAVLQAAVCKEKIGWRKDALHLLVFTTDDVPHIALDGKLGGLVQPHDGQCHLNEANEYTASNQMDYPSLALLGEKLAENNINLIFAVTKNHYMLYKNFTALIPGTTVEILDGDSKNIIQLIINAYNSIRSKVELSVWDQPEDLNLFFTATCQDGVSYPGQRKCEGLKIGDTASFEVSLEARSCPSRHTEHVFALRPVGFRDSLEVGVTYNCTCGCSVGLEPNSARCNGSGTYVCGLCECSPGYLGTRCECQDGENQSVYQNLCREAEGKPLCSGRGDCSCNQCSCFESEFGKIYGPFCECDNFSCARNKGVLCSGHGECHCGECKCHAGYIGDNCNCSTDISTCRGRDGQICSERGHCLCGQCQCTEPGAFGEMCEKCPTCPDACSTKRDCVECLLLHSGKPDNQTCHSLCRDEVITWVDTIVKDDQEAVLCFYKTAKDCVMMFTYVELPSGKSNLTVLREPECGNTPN

[3] = target: recombinant human integrin α5β1 (human) (UniProt P08648)
recombinant human integrin α5β1 (human), sequence (P08648 42-1049, chain 1 of 2): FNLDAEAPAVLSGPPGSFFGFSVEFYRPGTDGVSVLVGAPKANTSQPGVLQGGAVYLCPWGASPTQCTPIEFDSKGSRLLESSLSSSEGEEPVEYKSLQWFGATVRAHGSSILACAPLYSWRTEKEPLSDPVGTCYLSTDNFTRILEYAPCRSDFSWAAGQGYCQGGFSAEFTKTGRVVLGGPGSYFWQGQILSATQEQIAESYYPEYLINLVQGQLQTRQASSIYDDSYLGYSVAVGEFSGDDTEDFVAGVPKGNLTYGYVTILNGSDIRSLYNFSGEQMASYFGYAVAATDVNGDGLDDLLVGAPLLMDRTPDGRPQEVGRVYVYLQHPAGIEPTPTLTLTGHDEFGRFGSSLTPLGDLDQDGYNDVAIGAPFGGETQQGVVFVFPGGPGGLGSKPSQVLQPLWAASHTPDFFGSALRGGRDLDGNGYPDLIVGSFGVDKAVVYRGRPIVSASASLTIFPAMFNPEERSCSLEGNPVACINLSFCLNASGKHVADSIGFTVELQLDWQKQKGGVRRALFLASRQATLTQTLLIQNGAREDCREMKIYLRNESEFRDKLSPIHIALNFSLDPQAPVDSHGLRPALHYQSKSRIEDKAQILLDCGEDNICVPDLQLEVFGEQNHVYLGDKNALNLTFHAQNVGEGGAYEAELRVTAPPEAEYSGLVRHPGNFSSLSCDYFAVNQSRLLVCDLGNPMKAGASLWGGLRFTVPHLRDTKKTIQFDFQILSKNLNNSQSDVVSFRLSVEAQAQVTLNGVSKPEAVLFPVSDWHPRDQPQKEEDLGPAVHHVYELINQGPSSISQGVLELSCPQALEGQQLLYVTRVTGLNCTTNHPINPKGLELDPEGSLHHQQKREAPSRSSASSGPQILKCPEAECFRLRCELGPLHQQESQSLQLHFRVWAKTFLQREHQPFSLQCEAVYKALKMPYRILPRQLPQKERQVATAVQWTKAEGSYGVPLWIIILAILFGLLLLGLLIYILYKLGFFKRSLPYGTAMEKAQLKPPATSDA
recombinant human integrin α5β1 (human), sequence (P05556 21-728, chain 2 of 2, further chain): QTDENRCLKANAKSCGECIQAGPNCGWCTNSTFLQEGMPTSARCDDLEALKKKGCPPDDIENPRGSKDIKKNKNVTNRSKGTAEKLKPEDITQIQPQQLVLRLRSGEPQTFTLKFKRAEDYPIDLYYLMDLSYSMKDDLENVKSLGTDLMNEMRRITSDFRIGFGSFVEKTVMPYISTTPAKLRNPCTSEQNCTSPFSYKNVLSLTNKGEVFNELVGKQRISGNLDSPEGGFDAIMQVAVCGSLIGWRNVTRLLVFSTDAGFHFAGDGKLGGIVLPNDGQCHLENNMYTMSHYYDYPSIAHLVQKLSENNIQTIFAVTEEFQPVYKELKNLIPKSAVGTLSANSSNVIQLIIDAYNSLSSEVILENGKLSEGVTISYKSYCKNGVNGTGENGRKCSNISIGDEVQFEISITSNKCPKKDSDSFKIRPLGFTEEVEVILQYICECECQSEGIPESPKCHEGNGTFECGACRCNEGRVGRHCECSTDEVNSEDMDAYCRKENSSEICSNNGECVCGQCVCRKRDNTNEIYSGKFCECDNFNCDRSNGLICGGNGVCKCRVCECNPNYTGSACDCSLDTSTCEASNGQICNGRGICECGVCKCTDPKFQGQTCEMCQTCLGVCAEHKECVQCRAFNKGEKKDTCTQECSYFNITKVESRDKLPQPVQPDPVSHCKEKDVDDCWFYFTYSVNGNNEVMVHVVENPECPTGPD

Binder	binding in percent of wild type CagL [1] [%]	binding in percent of wild type CagL [2] [%]	binding in percent of wild type CagL [3] [%]
B1	< 50	< 50	< 50
B2	< 36	< 36	< 36
